In patent US20100095387A1, “METHODS AND REAGENTS FOR SCREENING NEW DRUGS AND FOR TREATING ION PUMP ASSOCIATED DISORDERS AND DISEASES” (priority 2005, published 2010):

Target: α3 subunit of the Na+/K+-ATPase, endogenous on mouse cells (cortical neurons, cortical slices, cardiac myocytes) (mouse) (UniProt Q6PIC6)
Experiment: cell-based or functional assay

Substance: C-Ag95z8, soluble 95-kD COOH terminus of mouse agrin, y4 z8 (from UniProt A2ASQ1 1144-1950) (ligand)
- EC50 of c-fos induction (Fos in situ enzyme-linked immunoassay, cortical cultures): 0.0127 nM

Substance: C-Ag95z0, soluble 95-kD COOH terminus of mouse agrin, y4 z0 (from UniProt A2ASQ1 1144-1950) (ligand)
- EC50 of c-fos induction (Fos in situ enzyme-linked immunoassay, cortical cultures): 0.0119 nM
